{"source": "patent US20090022738A1", "about": "(MICROMET, published 2009)", "binders": {"B1": {"name": "anti-CD19×anti-CD3 (VH2/VL2) (SEQ ID NO.:180) (bispecific antibody)", "chain": "DIQLTQSPASLAVSLGQRATISCKASQSVDYDGDSYLNWYQQIPGQPPKLLIYDASNLVSGIPPRFSGSGSGTDFTLNIHPVEKVDAATYHCQQSTEDPWTFGGGTKLEIKGGGGSGGGGSGGGGSQVQLQQSGAELVRPGSSVKISCKASGYAFSSYWMNWVKQRPGQGLEWIGQIWPGDGDTNYNGKFKGKATLTADESSSTAYMQLSSLASEDSAVYFCARRETTTVGRYYYAMDYWGQGTTVTVSSGGGGSDVQLVQSGAEVKKPGASVKVSCKASGYTATRYTMHWVRQAPGQGLEWIGYINPSRGYTNYAQKLQGRVTMTTDTSTSTAYMELSSLRSEDTATYYCARYYDDHYCLDYWGQGTTVTVSSGEGTSTGSGGSGGSGGADDIVLTQSPATLSLSPGERATLSCRASQSVSYMNWYQQKPGKAPKRWIYDTSKVASGVPARFSGSGSGTDYSLTINSLEAEDAATYYCQQWSSNPLTFGGGTKVEIK", "notes": "As m4: bispecific single chain, His-tagged; also called pEF anti-CD19×anti-CD3 (VH2/VL2)"}, "B2": {"name": "anti-CD19×anti-CD3 (VH3/VL3) (SEQ ID NO.:188) (bispecific antibody)", "chain": "B1 chain with M336L, E337Q, L338M, S339N, R342K, S343T, T348V, S414T, Q419S", "notes": "As m4: bispecific single chain, His-tagged; also called pEF anti-CD19×anti-CD3 (VH3/VL3)"}, "B3": {"name": "anti-CD19×anti-CD3 (VH3/VL2) (SEQ ID NO.:186) (bispecific antibody)", "chain": "B1 chain with M336L, E337Q, L338M, S339N, R342K, S343T, T348V", "notes": "As m4: bispecific single chain, His-tagged; also called pEF anti-CD19×anti-CD3 (VH3/VL2)"}, "B4": {"name": "anti-CD19×anti-CD3 (VH2/VL3) (SEQ ID NO.:182) (bispecific antibody)", "chain": "B1 chain with S414T, Q419S", "notes": "As m4: bispecific single chain, His-tagged; also called pEF anti-CD19×anti-CD3 (VH2/VL3)"}, "B5": {"name": "anti-CD19×anti-CD3 (VH2/VL1) (SEQ ID NO.:178) (bispecific antibody)", "chain": "B1 chain with V395Q, L396M, A401S, T402S, L405A, P407V, E409D, A411V, L413I, S414T", "notes": "also called pEF anti-CD19×anti-CD3 (VH2/VL1)"}, "B6": {"name": "anti-CD19×anti-CD3 (VH3/VL1) (SEQ ID NO.:184) (bispecific antibody)", "chain": "DIQLTQSPASLAVSLGQRATISCKASQSVDYDGDSYLNWYQQIPGQPPKLLIYDASNLVSGIPPRFSGSGSGTDFTLNIHPVEKVDAATYHCQQSTEDPWTFGGGTKLEIKGGGGSGGGGSGGGGSQVQLQQSGAELVRPGSSVKISCKASGYAFSSYWMNWVKQRPGQGLEWIGQIWPGDGDTNYNGKFKGKATLTADESSSTAYMQLSSLASEDSAVYFCARRETTTVGRYYYAMDYWGQGTTVTVSSGGGGSDVQLVQSGAEVKKPGASVKVSCKASGYTATRYTMHWVRQAPGQGLEWIGYINPSRGYTNYAQKLQGRVTMTTDTSTSTAYLQMNSLKTEDTAVYYCARYYDDHYCLDYWGQGTTVTVSSGEGTSTGSGGSGGSGGADDIQMTQSPSSLSASVGDRVTITCRASQSVSYMNWYQQKPGKAPKRWIYDTSKVASGVPARFSGSGSGTDYSLTINSLEAEDAATYYCQQWSSNPLTFGGGTKVEIK", "notes": "As m4: bispecific single chain, His-tagged; also called pEF anti-CD19×anti-CD3 (VH3/VL1)"}}, "note": "Substitutions are numbered along the chain they refer to.", "data": [{"target": "T1, human CD3 (human, UniProt P07766 23-207; P04234 22-171; P09693 23-182)", "T1 construct": "whole, on cells; also called CD3 antigen; human CD3 complex", "assay": "FACS on CD3-enriched PBMCs", "values": [{"binder": "B1", "binding result": "no binding (tested: non-diluted supernatant)"}, {"binder": "B2", "binding result": "no binding (tested: non-diluted supernatant)"}, {"binder": "B3", "binding result": "no binding (tested: non-diluted supernatant)"}, {"binder": "B4", "binding result": "no binding (tested: non-diluted supernatant)"}, {"binder": "B5", "binding result": "no binding (tested: non-diluted supernatant)"}, {"binder": "B6", "binding result": "no binding (tested: non-diluted supernatant)"}]}, {"target": "T2, CD19 (human, UniProt P15391 20-556)", "T2 construct": "whole, on cells; also called CD19 on NALM-6 cells", "T2 sequence (looked up)": "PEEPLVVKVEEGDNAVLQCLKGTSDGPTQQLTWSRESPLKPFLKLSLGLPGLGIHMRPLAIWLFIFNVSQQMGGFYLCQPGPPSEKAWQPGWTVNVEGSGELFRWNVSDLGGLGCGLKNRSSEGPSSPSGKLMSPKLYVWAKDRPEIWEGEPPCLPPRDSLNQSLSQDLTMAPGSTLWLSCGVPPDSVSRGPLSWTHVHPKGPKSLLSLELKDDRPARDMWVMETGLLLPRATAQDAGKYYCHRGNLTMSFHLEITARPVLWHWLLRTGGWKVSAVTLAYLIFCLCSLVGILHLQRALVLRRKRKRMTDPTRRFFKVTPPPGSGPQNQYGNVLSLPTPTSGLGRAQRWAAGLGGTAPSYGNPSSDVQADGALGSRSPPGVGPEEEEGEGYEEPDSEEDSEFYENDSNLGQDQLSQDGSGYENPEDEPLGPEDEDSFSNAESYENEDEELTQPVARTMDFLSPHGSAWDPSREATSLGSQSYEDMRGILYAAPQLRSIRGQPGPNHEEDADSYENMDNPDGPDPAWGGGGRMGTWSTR", "assay": "FACS, crude supernatant on CD19-positive NALM-6 cells; negative control MFI ca. 3", "description": "(§1) In order to analyze the binding efficacy of the deimmunized constructs to CD3 and CD19 a FACS-based assay was performed. Initially, crude supernatants were tested for binding on CD3-enriched PBMCs or CD19-positive NALM-6 cells. Cells were incubated with non-diluted supernatants for 30 minutes at 8° C. Upon two wash steps the cells were labeled with an anti-His antibody (Qiagen) under the same conditions. After additional wash steps binding of the constructs was detected with a FITC-conjugated sheep anti-mouse antibody (Sigma). Cells were analyzed with a FACS Calibur cytometer (B&D). As controls supernatants of anti-CD19×anti-CD3 and GFP-transfected cells were included. […] The positive control, which was a non-deimmunized anti-CD19×anti-CD3 construct reached a MFI of around 60 showing that the deimmunized constructs comprising anti-CD3 (VH5/VL1) (SEQ ID NO.:190), anti-CD3 (VH5/VL2) (SEQ ID NO.:192), anti-CD3 (VH5/VL3) (SEQ ID NO.:194), anti-CD3 (VH7/VL1) (SEQ ID NO.:196), anti-CD3 (VH7/VL2) (SEQ ID NO.:198) and anti-CD3 (VH7/VL3) (SEQ ID NO.:200) bound CD3 with extremely high efficacy.\nThe FACS-based binding assay was also carried out for CD19. In this experiment CD19 and a secondary antibody was as a negative control. In this experiment, all assayed constructs achieved a MFI of at least 80 while the MFI of the negative control was ca. 3.", "units": {"MFI": "MFI"}, "values": [{"binder": "B1", "MFI": "≥ 80"}, {"binder": "B2", "MFI": "≥ 80"}, {"binder": "B3", "MFI": "≥ 80"}, {"binder": "B4", "MFI": "≥ 80"}, {"binder": "B5", "MFI": "≥ 80"}, {"binder": "B6", "MFI": "≥ 80"}]}, {"target": "T1, human CD3", "assay": "FACS, second experiment, crude supernatant on CD3-enriched PBMCs", "description": "as §1", "units": {"MFI": "MFI"}, "values": [{"binder": "B1", "MFI": "~6"}, {"binder": "B2", "MFI": "~6"}, {"binder": "B3", "MFI": "~6"}, {"binder": "B4", "MFI": "~6"}, {"binder": "B5", "MFI": "~6"}, {"binder": "B6", "MFI": "~6"}]}]}
